Where no end group is shown, it is not given here.
B1: native Cyk4 peptide (synthetic) (peptide)
chain: LSTIDESGS
modifications: synthetic peptide; exact ends and termini not given, the printed motif 143-LSTIDESGS-151 is used as the core

Tests used:
[1] = target: B′α regulatory subunit (UniProt Q15172 1-486); test: BLI
[2] = target: T1, B′γ1 regulatory subunit (UniProt Q13362-2 1-449); test: BLI
[3] = target: PP2A-B′γ1 holoenzyme (UniProt P30153 1-589; P67775 1-309; Q13362-2 1-449); test: BLI
[4] = target: T1, B′γ1 regulatory subunit; test: ITC

Chain of B′α regulatory subunit (Q15172 whole entry): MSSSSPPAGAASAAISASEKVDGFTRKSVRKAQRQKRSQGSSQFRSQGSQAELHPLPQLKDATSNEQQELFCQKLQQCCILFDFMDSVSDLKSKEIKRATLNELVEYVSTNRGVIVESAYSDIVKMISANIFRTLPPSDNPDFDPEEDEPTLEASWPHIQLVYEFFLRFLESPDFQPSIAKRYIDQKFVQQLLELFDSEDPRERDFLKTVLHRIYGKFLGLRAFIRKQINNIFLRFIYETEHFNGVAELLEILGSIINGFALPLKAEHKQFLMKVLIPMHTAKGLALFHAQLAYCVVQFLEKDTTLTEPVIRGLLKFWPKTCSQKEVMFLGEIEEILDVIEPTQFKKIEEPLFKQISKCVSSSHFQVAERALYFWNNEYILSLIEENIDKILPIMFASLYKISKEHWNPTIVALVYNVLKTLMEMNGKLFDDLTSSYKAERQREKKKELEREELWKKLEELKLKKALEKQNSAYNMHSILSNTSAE
Chain of PP2A-B′γ1 holoenzyme (P30153 whole entry, chain 1 of 3, other chains not shown): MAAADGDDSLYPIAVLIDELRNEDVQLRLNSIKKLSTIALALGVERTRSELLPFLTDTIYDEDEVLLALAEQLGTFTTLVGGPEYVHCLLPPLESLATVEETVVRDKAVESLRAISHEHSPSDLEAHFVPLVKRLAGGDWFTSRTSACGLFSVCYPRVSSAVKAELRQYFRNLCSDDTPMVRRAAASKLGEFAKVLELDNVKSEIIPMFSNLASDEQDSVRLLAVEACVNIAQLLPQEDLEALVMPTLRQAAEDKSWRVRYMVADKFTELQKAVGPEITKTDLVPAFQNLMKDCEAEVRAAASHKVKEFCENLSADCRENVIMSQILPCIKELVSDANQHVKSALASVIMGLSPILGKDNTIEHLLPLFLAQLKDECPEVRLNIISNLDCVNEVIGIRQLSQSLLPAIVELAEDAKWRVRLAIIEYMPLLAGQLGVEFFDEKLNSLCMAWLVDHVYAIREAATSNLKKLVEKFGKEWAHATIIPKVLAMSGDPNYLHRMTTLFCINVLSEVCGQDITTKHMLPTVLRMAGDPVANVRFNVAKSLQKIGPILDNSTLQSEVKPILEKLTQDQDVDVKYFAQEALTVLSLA
Chain of PP2A-B′γ1 holoenzyme (P67775 whole entry, chain 2 of 3, other chains not shown): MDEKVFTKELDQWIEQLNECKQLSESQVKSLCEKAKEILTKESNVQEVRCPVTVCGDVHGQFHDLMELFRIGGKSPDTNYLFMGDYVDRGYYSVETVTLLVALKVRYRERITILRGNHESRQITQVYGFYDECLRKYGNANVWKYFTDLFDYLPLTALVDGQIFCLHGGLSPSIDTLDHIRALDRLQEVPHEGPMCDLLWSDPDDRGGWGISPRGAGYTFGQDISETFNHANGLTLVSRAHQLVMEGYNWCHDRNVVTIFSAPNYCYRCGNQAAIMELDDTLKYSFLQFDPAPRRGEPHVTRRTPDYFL

Binder	Kd [1]	Kd [2]	Kd [3]	Kd [4]
FQHNRKLESVAEEHEI [GST-tagged KIAA1524 (CIP2A) peptide (B′-binding motif)]	330 nM	121 nM	310 nM	–
KLPHVLSSIAEEEHHL [GST-tagged SYT16 peptide (B′-binding motif)]	197 nM	340 nM	121 nM	–
YQPLECIVEETEGKLN (not fully specified) [GST-tagged ANKHD1 peptide (B′-binding motif)]	1090 nM	2100 nM	320 nM	–
LSSIPEASEYDWRNYQ [GST-tagged C3orf67 peptide (B′-binding motif)]	450 nM	62 nM	43 nM	–
IKKLSPIIEDSREATH [GST-tagged BUB1B peptide (B′-binding motif)]	226 nM	43 nM	34 nM	–
B1	–	–	–	22700 nM
QNQFSEHDKTLYRIPE [GST-tagged TJP1 peptide (B′-binding motif)]	490 nM	161 nM	–	–
LSTIDEEGE [Cyk4 S149E/S151E peptide (synthetic, phosphomimetic)]	–	–	–	1300 nM
LETIPESEPSGMNRIL [GST-tagged DENND2C peptide (B′-binding motif)]	–	530 nM	221 nM	–
NKRLSTIDEEGS [Cyk4 peptide S149E]	–	–	–	1590 nM
HVLYPIPESSSDSPLA [GST-tagged STON1 peptide (B′-binding motif)]	11800 nM	3000 nM	–	–

From publication PMC5586252 (2017)
